Values belong to the binder of their own block, whether it stands above or below them.
Columns and labels:
4H1222-bH = target: T1, 4H1222-bH; experiment: two-hybrid library CCNG1;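 also: natural log of median RNA to DNA barcode read ratio; higher means stronger binding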
T1 chain: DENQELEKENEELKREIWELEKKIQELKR

4H1338-bH = target: T2, 4H1338-bH; experiment: two-hybrid library CCNG1;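 also: natural log of median RNA to DNA barcode read ratio; higher means stronger binding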
T2 chain: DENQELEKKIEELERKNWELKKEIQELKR

4H1348-bH = target: T3, 4H1348-bH; experiment: two-hybrid library CCNG1;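 also: natural log of median RNA to DNA barcode read ratio; higher means stronger binding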
T3 chain: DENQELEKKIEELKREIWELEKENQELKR

4H1359-bH = target: T4, 4H1359-bH; experiment: two-hybrid library CCNG1;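 also: natural log of median RNA to DNA barcode read ratio; higher means stronger binding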
T4 chain: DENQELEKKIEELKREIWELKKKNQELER

4H1373-bH = target: T5, 4H1373-bH; experiment: two-hybrid library CCNG1;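 also: natural log of median RNA to DNA barcode read ratio; higher means stronger binding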
T5 chain: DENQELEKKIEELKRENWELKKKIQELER

4H1393-bH = target: T6, 4H1393-bH; experiment: two-hybrid library CCNG1;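 also: natural log of median RNA to DNA barcode read ratio; higher means stronger binding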
T6 chain: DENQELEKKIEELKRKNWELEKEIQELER

4H1449-bH = target: T7, 4H1449-bH; experiment: two-hybrid library CCNG1
T7 chain: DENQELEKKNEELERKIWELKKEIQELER

4H1544-bH = target: T8, 4H1544-bH; experiment: two-hybrid library CCNG1
T8 chain: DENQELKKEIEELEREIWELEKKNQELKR

4H1629-bH = target: T9, 4H1629-bH; experiment: two-hybrid library CCNG1
T9 chain: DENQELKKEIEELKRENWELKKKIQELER

4H1710-bH = target: T10, 4H1710-bH; experiment: two-hybrid library CCNG1
T10 chain: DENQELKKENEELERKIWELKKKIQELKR

4H1804-bH = target: T11, 4H1804-bH; experiment: two-hybrid library CCNG1
T11 chain: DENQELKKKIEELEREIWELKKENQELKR

4H1899-bH = target: T12, 4H1899-bH; experiment: two-hybrid library CCNG1
T12 chain: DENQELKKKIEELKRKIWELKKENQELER

4H1985-bH = target: T13, 4H1985-bH; experiment: two-hybrid library CCNG1
T13 chain: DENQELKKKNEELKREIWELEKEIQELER

4H3129-bH = target: T14, 4H3129-bH; experiment: two-hybrid library CCNG1
T14 chain: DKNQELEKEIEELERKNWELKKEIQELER

4H3172-bH = target: T15, 4H3172-bH; experiment: two-hybrid library CCNG1
T15 chain: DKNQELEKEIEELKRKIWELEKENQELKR

4H3189-bH = target: T16, 4H3189-bH; experiment: two-hybrid library CCNG1
T16 chain: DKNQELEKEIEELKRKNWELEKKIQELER

4H3414-bH = target: T17, 4H3414-bH; experiment: two-hybrid library CCNG1
T17 chain: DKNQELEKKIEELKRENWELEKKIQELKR

4H3613-bH = target: T18, 4H3613-bH; experiment: two-hybrid library CCNG1
T18 chain: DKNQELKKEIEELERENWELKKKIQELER

4H3628-bH = target: T19, 4H3628-bH; experiment: two-hybrid library CCNG1
T19 chain: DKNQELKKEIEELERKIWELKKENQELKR

4H3631-bH = target: T20, 4H3631-bH; experiment: two-hybrid library CCNG1
T20 chain: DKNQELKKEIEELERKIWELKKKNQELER

4H3638-bH = target: T21, 4H3638-bH; experiment: two-hybrid library CCNG1
T21 chain: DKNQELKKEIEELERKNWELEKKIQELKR

4H3817-bH = target: T22, 4H3817-bH; experiment: two-hybrid library CCNG1
T22 chain: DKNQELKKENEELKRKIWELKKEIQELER

4H3858-bH = target: T23, 4H3858-bH; experiment: two-hybrid library CCNG1
T23 chain: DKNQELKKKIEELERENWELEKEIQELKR

4H3974-bH = target: T24, 4H3974-bH; experiment: two-hybrid library CCNG1
T24 chain: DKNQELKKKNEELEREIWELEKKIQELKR

4H570-bH = target: T25, 4H570-bH; experiment: two-hybrid library CCNG1
T25 chain: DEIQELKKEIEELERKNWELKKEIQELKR

4H584-bH = target: T26, 4H584-bH; experiment: two-hybrid library CCNG1
T26 chain: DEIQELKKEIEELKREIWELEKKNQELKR

4H619-bH = target: T27, 4H619-bH; experiment: two-hybrid library CCNG1
T27 chain: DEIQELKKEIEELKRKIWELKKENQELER

4H741-bH = target: T28, 4H741-bH; experiment: two-hybrid library CCNG1
T28 chain: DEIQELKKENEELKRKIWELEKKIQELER

4H850-bH = target: T29, 4H850-bH; experiment: two-hybrid library CCNG1
T29 chain: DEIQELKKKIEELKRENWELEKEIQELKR

4H906-bH = target: T30, 4H906-bH; experiment: two-hybrid library CCNG1
T30 chain: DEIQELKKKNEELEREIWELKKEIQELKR

O8-bN = target: T31, O8-bN; experiment: two-hybrid library CCNG1
T31 chain: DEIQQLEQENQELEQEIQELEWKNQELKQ

P5bH1 = target: T32, P5bH1; experiment: two-hybrid library CCNG1
T32 chain: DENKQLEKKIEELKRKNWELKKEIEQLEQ

P8A-bN = target: T33, P8A-bN; experiment: two-hybrid library CCNG1
T33 chain: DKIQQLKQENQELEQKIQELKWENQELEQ

O6-AA = target: T34, O6-AA; experiment: two-hybrid library CCmax
T34 chain: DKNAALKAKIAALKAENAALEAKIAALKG

O7-AA = target: T35, O7-AA; experiment: two-hybrid library CCmax; details: mean of both orientations
T35 chain: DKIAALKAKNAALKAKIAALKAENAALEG

O8-AA = target: T36, O8-AA; experiment: two-hybrid library CCmax; details: mean of both orientations
T36 chain: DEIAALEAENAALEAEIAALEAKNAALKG

P10-AA = target: T37, P10-AA; experiment: two-hybrid library CCmax; details: mean of both orientations
T37 chain: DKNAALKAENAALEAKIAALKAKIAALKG

P5-AA-1HGe-A = target: T38, P5-AA-1HGe-A; experiment: two-hybrid library CCmax; details: mean of both orientations
T38 chain: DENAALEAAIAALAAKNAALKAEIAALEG

P5-AA-1HGe-D = target: T39, P5-AA-1HGe-D; experiment: two-hybrid library CCmax; details: mean of both orientations
T39 chain: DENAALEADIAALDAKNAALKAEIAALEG

P5-AA-1HGe-H = target: T40, P5-AA-1HGe-H; experiment: two-hybrid library CCmax; details: mean of both orientations
T40 chain: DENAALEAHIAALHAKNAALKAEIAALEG

P5-AA-1HGe-M = target: T41, P5-AA-1HGe-M; experiment: two-hybrid library CCmax; details: mean of both orientations
T41 chain: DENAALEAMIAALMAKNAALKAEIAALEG

P5-AA-1HGe-Q = target: T42, P5-AA-1HGe-Q; experiment: two-hybrid library CCmax; details: mean of both orientations
T42 chain: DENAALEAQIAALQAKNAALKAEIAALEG

P5-AA-1HGe-R = target: T43, P5-AA-1HGe-R; experiment: two-hybrid library CCmax; details: mean of both orientations
T43 chain: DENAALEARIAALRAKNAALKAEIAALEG

P5-AA-1HGe-S = target: T44, P5-AA-1HGe-S; experiment: two-hybrid library CCmax; details: mean of both orientations
T44 chain: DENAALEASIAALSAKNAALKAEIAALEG

P5-AA-1HGe-T = target: T45, P5-AA-1HGe-T; experiment: two-hybrid library CCmax; details: mean of both orientations
T45 chain: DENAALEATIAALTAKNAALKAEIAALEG

P5-AA-1HGe-W = target: T46, P5-AA-1HGe-W; experiment: two-hybrid library CCmax; details: mean of both orientations
T46 chain: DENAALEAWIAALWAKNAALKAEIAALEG

P5-AA-1HGe-Y = target: T47, P5-AA-1HGe-Y; experiment: two-hybrid library CCmax; details: mean of both orientations
T47 chain: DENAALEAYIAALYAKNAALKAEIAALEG

P9-AA = target: T48, P9-AA; experiment: two-hybrid library CCmax; details: mean of both orientations
T48 chain: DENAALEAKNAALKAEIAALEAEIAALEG

interaction score (4H1222-bH): 0.735
interaction score (4H1338-bH): 0.196
interaction score (4H1348-bH): -0.0221
interaction score (4H1359-bH): 0.083
interaction score (4H1373-bH): -0.384
interaction score (4H1393-bH): -0.624
interaction score (4H1449-bH): 1.19
interaction score (4H1544-bH): -2.53
interaction score (4H1629-bH): -0.0755
interaction score (4H1710-bH): 2.16
interaction score (4H1804-bH): 0.345
interaction score (4H1899-bH): 0.852
interaction score (4H1985-bH): 1.24
interaction score (4H3129-bH): 0.793
interaction score (4H3172-bH): -0.665
interaction score (4H3189-bH): -1.2
interaction score (4H3414-bH): 0.0236
interaction score (4H3613-bH): -1.34
interaction score (4H3628-bH): 0.758
interaction score (4H3631-bH): 0.426
interaction score (4H3638-bH): -0.0664
interaction score (4H3817-bH): 1.69
interaction score (4H3858-bH): -0.605
interaction score (4H3974-bH): 1.38
interaction score (4H570-bH): 0.693
interaction score (4H584-bH): 0.714
interaction score (4H619-bH): -1.4
interaction score (4H741-bH): -2.48
interaction score (4H850-bH): 0.372
interaction score (4H906-bH): -0.362
interaction score (O8-bN): -2.96
interaction score (P5bH1): 0.361
interaction score (P8A-bN): 2.04
Binder: DENQELEKENEELKREIWELEKKIQELKR [4H1222-bH]

interaction score (O6-AA): -0.782
interaction score (O7-AA): -0.751
interaction score (O8-AA): 1.57
interaction score (P10-AA): -1.2
interaction score (P5-AA-1HGe-A): 2.21
interaction score (P5-AA-1HGe-D): 1.7
interaction score (P5-AA-1HGe-H): 1.6
interaction score (P5-AA-1HGe-M): 2.06
interaction score (P5-AA-1HGe-Q): 2.25
interaction score (P5-AA-1HGe-R): 1.98
interaction score (P5-AA-1HGe-S): 1.69
interaction score (P5-AA-1HGe-T): 2.12
interaction score (P5-AA-1HGe-W): 1.75
interaction score (P5-AA-1HGe-Y): 1.74
interaction score (P9-AA): -0.00244
Binder: DKNAALKAKIAALKAENAALEAKIAALKG [O6-AA]
